Source: US20250074957A1 (GENERAL HOSPITAL, published 2025)

B1: CRBN (wild-type; endogenous in Jurkat/293T cells or re-expressed in 293T-CRBNΔe5 cells) (other)
chain: MAGEGDQQDAAHNMGNHLPLLPAESEEEDEMEVEDQDSKEAKKPNIINFDTSLPTSHTYLGADMEEFHGRTLHDDDSCQVIPVLPQVMMILIPGQTLPLQLFHPQEVSMVRNLIQKDRTFAVLAYSNVQEREAQFGTTAEIYAYREEQDFGIEIVKVKAIGRQRFKVLELRTQSDGIQQAKVQILPECVLPSTMSAVQLESLNKCQIFPSKPVSREDQCSYKWWQKYQKRKFHCANLTSWPRWLYSLYDAETLMDRIKKQLREWDENLKDDSLPSNPIDFSYRVAACLPIDDVLRIQLLKIGSAIQRLRCELDIMNKCTSLCCKQCQETEITTKNEIFSLSLCGPMAAYVNPHGYVHETLTVYKACNLNLIGRPSTEHSWFPGYAWTVAQCKICASHIGWKFTATKKDMSPQKFWGLTRSALLPTIPDTEDEISPDKVILCL
B2: IKZF3 degron polypeptide, amino acids 130-189 A153M (HaloTag fusion for BRET) (other, not shown: large carriers)
chain: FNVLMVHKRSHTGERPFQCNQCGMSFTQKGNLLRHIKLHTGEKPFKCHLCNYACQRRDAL
notes: also called IKZF3 A153M; A153M-substituted form of the IKZF3 degron
B3: CRBN-Nanoluciferase (NLuc) (other, not shown: large carriers)
chain: B1 chain
notes: Expressed inside transfected 293T cells for NanoBRET (intracellular, not on the surface); also called wild-type CRBN; wtCRBN
B4: minCRBN3-NLuc (other, not shown: large carriers)
chain: AGEGDQQDAAHNMGNHLPLLPESEEEDEMEVEDQDSKEAKKPNIINFDTSLPTSHTYLGADMEEFHGRTLHDDDSCQVIPVLPQVMMILIPGQTLPLQLFHPQEVSMVRNLIQKDRTFAVLAYSNVQEREAQFGTTAEIYAYREEQDFGIEIVKVKAIGRQRFKVLELRTQSDGIQQAKVQILPECVLPSTYDAETLMDRIKKQLREWDENLKDDSLPSNPIDFSYRVAACLPIDDVLRIQLLKIGSAIQRLRCELDIMNKCTSLCCKQCQETEITTKNEIFSLSLCGPMAAYVNPHGYVHETLTVYKACNLNLIGRPSTEHSWFPGYAWTVAQCKICASHIGWKFTATKKDMSPQKFWGLTRSALLPTIPDTEDEISPDKVILCL
notes: also called CRBNΔ3; cytosolic (untethered) minCRBN

How the values were obtained:
CD28-IKZF3 (eGFP fusion) = test: cell-based or functional assay
[1] = molecular target: CD28-CD3z-IKZF3 (eGFP fusion); test: cell-based or functional assay
[2] = molecular target: IKZF3 degron-eGFP fusion (IKZF3 degron-GFP-IRES-mCherry reporter) (Homo sapiens, UniProt A2VDW9 130-189 (bovine entry)); test: cell-based or functional assay
[3] = molecular target: B3; test: NanoBRET across a range of pomalidomide concentrations
Experimental: (§1) Cells were then trypsinized and seeded into 96 well plates, at 40,000 cells per well. The BRET assay was performed per manufacturer's instructions (Promega™). In brief, cells were incubated for 2 hours with varying concentrations of Pomalidomide or DMSO, 10 μM MG132, and 100 nM HaloTag NanoBRET 618 Ligand. NanoBRET Nano-Glo substrate was added and donor (460 nm) and acceptor (618 nm) emission were measured within 10 minutes (EnVision, Perkin Elmer). Mean corrected milliBRET units (mBU) was calculated.

IKZF3aa130-189-HaloTag = molecular target: T1, IKZF3aa130-189-HaloTag (Homo sapiens, UniProt A2VDW9 130-189 (bovine entry)); test: NanoBRET in 293T-CRBNΔe5 cells, pomalidomide dose-response; the Kd is a pomalidomide concentration
T1 construct: Expressed in transfected 293T cells for NanoBRET; labelled with HaloTag NanoBRET 618 ligand; also called IKZF3 degron; degron
Experimental: as §1

T1 sequence (A2VDW9 130-189): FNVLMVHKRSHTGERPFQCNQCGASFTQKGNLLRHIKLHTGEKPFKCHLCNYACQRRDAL
Chain of IKZF3 degron-eGFP fusion (IKZF3 degron-GFP-IRES-mCherry reporter) (A2VDW9 130-189): as above

Binder: B1
- EC50 of pomalidomide-dependent degradation (eGFP/mCherry ratio normalized to DMSO), Jurkat T cells (CD28-IKZF3 (eGFP fusion)): 23.5 nM
- EC50 of pomalidomide-dependent degradation (eGFP/mCherry ratio normalized to DMSO), Jurkat T cells [1]: 8.2 nM
- EC50 of pomalidomide-dependent degradation (eGFP/mCherry ratio normalized to DMSO), Jurkat T cells [2]: 0.42 nM

Binder: B2
- binding result [3]: binds

Binder: B3
- apparent Kd (pomalidomide-dependent dimerization) (IKZF3aa130-189-HaloTag): 30 nM

Binder: B4
- apparent Kd (pomalidomide-dependent dimerization) (IKZF3aa130-189-HaloTag): 30 nM
